According to article PMC7242440 (2020):

T1: Mpa (Mycobacterium tuberculosis, UniProt P9WQN5)
T1 chain: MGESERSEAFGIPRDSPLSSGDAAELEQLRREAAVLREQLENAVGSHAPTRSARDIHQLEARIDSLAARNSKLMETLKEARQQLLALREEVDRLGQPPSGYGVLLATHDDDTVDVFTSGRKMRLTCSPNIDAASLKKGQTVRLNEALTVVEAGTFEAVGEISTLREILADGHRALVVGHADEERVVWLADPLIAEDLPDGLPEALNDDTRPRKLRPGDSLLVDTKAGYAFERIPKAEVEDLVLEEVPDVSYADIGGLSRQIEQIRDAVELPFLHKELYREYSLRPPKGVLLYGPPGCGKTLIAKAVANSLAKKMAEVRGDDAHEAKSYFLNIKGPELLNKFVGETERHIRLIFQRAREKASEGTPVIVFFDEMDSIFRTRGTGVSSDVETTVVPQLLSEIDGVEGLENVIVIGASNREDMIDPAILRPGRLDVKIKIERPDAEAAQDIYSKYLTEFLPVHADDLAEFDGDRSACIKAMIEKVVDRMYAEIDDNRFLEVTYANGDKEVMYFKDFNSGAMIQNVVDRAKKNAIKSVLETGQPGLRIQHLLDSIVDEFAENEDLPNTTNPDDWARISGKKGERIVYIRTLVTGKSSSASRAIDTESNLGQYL

B1: Pup (protein)
chain: MAQEQTKRGGGGGDDDDIAGSTAAGQERREKLTEETDDLLDEIDDVLEENAEDFVRAYVQKGGQ

What was measured:
[1] = molecular target: Mpa (Mycobacterium tuberculosis) (UniProt P9WQN5); conditions: cited from earlier work
Mpa = molecular target: T1, Mpa; test: NMR

Row | Molecule | Kd [1] | Kd (Mpa)
1 | Pup (from UniProt P9WHN5) | 3.5 µM | –
2 | B1 | – | ~28 µM
